Laboratory results as given in patent publication US20260234222A1 (LEYDEN LABORATORIES B V, published 2026).
Where two headings read alike, the source gives them in different places.

How the values were obtained:
SARS-CoV-1 Spike antigen [1] = target: T1, SARS-CoV-1 Spike antigen (SARS-CoV-1, UniProt P59594 14-1190); assay: cell-based or functional assay
MERS-CoV Spike antigen [2] = target: T2, MERS-CoV Spike antigen (MERS-CoV, UniProt K9N5Q8 18-1291); assay: cell-based or functional assay
T2 sequence: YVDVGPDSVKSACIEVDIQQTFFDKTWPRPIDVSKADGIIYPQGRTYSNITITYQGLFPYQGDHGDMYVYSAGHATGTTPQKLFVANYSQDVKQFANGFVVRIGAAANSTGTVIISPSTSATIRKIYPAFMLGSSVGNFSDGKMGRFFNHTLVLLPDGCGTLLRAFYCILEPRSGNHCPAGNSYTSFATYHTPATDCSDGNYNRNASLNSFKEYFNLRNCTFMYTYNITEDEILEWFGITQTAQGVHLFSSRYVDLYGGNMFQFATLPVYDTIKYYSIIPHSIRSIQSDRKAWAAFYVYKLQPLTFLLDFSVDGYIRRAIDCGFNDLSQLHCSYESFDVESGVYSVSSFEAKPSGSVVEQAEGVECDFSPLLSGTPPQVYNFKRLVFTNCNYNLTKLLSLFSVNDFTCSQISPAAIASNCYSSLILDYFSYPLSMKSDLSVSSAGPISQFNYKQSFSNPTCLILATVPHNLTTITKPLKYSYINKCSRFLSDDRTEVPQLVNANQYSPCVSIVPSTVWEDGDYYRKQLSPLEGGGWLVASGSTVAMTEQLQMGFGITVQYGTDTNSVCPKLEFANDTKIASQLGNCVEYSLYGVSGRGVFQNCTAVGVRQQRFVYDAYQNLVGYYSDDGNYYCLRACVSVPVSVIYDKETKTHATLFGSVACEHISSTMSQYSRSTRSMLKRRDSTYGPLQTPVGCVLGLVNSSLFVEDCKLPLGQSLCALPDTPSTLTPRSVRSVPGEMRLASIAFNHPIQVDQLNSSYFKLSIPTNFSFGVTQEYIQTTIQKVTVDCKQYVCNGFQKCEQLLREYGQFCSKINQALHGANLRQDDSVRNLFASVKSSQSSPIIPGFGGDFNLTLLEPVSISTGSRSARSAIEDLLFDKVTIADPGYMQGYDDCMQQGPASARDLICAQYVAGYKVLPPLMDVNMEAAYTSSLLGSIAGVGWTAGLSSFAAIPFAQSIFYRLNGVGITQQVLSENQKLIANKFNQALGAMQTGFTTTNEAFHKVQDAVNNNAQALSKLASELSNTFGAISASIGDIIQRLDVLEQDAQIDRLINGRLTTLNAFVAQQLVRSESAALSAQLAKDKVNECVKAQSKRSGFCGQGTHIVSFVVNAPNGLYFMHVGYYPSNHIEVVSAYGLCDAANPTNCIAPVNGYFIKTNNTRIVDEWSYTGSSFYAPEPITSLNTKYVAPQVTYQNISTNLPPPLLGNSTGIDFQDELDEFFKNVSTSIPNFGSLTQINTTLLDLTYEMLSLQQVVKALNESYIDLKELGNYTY

hCoV-NL63 Spike antigen [3] = target: T3, hCoV-NL63 Spike antigen (hCoV-NL63, UniProt Q6Q1S2 19-1291); assay: ELISA, Spike antigen coated on plate
T3 construct: also called human coronavirus NL63
T3 sequence: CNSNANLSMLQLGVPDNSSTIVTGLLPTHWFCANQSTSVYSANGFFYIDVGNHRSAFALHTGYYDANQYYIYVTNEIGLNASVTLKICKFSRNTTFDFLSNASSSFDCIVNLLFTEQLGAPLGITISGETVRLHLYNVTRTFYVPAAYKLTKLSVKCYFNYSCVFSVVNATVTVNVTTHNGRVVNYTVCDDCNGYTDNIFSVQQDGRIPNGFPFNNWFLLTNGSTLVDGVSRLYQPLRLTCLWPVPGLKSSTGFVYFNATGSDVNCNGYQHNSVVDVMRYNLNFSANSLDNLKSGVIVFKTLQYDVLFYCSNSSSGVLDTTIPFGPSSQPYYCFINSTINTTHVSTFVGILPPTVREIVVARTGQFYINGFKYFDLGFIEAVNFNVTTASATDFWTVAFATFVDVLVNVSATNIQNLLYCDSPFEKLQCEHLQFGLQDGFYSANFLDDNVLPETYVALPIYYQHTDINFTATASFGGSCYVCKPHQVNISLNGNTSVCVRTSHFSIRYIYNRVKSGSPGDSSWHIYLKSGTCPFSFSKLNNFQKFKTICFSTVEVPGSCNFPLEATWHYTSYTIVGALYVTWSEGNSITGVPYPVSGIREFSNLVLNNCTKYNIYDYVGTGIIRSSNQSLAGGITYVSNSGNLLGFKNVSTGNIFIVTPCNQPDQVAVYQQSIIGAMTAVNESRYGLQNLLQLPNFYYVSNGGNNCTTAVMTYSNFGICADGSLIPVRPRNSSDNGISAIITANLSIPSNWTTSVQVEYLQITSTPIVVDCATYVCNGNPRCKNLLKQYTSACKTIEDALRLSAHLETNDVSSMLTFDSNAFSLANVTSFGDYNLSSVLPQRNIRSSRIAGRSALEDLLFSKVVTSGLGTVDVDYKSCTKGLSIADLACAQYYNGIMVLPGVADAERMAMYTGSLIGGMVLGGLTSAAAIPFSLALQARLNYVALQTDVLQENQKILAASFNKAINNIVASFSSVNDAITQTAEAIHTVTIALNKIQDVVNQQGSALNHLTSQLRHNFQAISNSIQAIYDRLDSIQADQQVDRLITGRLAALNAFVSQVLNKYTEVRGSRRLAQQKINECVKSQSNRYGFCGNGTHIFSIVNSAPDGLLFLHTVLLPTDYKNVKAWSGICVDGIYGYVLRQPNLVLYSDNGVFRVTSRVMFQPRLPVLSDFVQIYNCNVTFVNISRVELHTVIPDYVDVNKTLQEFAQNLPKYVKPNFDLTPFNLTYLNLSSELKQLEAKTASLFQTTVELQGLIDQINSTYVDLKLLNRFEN

hCoV-NL63 Spike antigen [4] = target: T3, hCoV-NL63 Spike antigen; assay: cell-based or functional assay
SARS-CoV-2 Spike antigen [5] = target: T4, SARS-CoV-2 Spike antigen (SARS-CoV-2, UniProt P0DTC2 14-1208); assay: cell-based or functional assay
SARS-CoV-1 Spike antigen [6] = target: T1, SARS-CoV-1 Spike antigen; assay: cell-based or functional assay; remark: listed apart in the source
SARS-CoV-2 Spike antigen [7] = target: T4, SARS-CoV-2 Spike antigen; assay: cell-based or functional assay; remark: listed apart in the source
SARS-CoV-2 Spike antigen [8] = target: T4, SARS-CoV-2 Spike antigen; assay: cell-based or functional assay; remark: listed apart in the source
SARS-CoV-1 Spike antigen [9] = target: T1, SARS-CoV-1 Spike antigen; assay: cell-based or functional assay; remark: listed apart in the source
MERS-CoV Spike antigen [10] = target: T2, MERS-CoV Spike antigen; assay: cell-based or functional assay; remark: listed apart in the source
SARS-CoV-2 Spike antigen [11] = target: T4, SARS-CoV-2 Spike antigen; assay: cell-based or functional assay; remark: listed apart in the source

Row | Binder | Live virus neutralization IC50 (SARS-CoV-1 Spike antigen [1]) [µg/mL] | Live virus neutralization IC50 (MERS-CoV Spike antigen [2]) [µg/mL] | binding result (hCoV-NL63 Spike antigen [3]) | Pseudovirion neutralization IC50 (hCoV-NL63 Spike antigen [4]) [µg/mL] | Pseudovirion neutralization IC50 (SARS-CoV-2 Spike antigen [5]) [µg/mL] | Pseudovirion neutralization IC50 (SARS-CoV-1 Spike antigen [6]) [µg/mL] | Live virus neutralization IC50 (SARS-CoV-2 Spike antigen [7]) [µg/mL] | Live virus neutralization IC50 (SARS-CoV-2 Spike antigen [8]) [µg/mL] | Live virus neutralization IC50 (SARS-CoV-1 Spike antigen [9]) [µg/mL] | Live virus neutralization IC50 (MERS-CoV Spike antigen [10]) [µg/mL] | Pseudovirion neutralization IC50 (SARS-CoV-2 Spike antigen [11]) [µg/mL]
1 | Parental mAb 2 (antibody, V domains shown) VH: QMQLMQSGAEVKKPGASVTVSCKASGDTFSDYRIHWVRQAPGQGLEWMGRMNPKSGDTNFAQKFQGRVTMTRDMSINTAYMTLSGLTFDDTALYYCASLLIVGGFDPLDDFEVWGQGTMVTISS VL: QSALTQPPSASGSPGQSVTISCSGTSSDVGGYNFVSWYQHHPGKAPKILIYEVTKRPSGVPDRFSGSKSGNTASLTVSGLQAEDEADYYCSSYGGTNNLLFGGGTKLTVL | 5.94 | 11.6 |  |  |  |  |  |  |  |  | 
2 | Bispecific 1 (bispecific antibody) heavy 1: not shown light 1: EIVLTQSPGTLSLSPGERATLSCRASQSVRRNYFAWYQQKRGQAPRLLIYDASTRATGIPDRFSGSGSGTDFTLTISRLEPEDFAVYYCQQYDSSPPMYIFGQGTKLEIKSSASTKGPSVFPLAPSSKSTSGGTAALGCLVKDYFPEPVTVSWNSGALTSGVHTFPAVLQSSGLYSLSSVVTVPSSSLGTQTYICNVNHKPSNTKVDKKVEPKSC heavy 2: not shown light 2: QSALTQPPSASGSPGQSVTISCSGTSSDVGGYNFVSWYQHHPGKAPKILIYEVTKRPSGVPDRFSGSKSGNTASLTVSGLQAEDEADYYCSSYGGTNNLLFGGGTKLTVLGQPKAAPSVTLFPPSSEELQANKATLVCLISDFYPGAVTVAWKADSSPVKAGVETTTPSKQSNNKYAASSYLSLTPEQWKSHRSYSCQVTHEGSTVEKTVAPTECS | 6.67 | 1.32 |  |  |  |  |  |  |  |  | 
3 | Parental mAb 1 (antibody, V domains shown, also called antibody according to the invention; first parental antibody) VH: QEQLVQSGAEVKKPGASVKVSCKSSGFTFSYFYLHWVRQAPGQGLEWMGIINPRGDGTRYAQKFQGRVTMTRDASTGTLYMELRSLRSEDTAVYYCARGADHGAFDIWGQGTMVTVSS VL: EIVLTQSPGTLSLSPGERATLSCRASQSVRRNYFAWYQQKRGQAPRLLIYDASTRATGIPDRFSGSGSGTDFTLTISRLEPEDFAVYYCQQYDSSPPMYIFGQGTKLEIK | 4.18 | 0.86 | no binding (tested: 10.0-0.000002 nM) | > 250 | 0.072 | 0.588 | 6.44 | 9.87 | 2.73 | 1.49 | 0.072
